Data reported in patent publication US20220348665A1.

Tests used:
[1] = target: human IGF1R, endogenous, on the surface of breast cancer cell lines (MCF-7, JIMT-1, BT474) (human) (UniProt P08069); assay: FACS on MCF-7 cells (FL1-H), anti-human FITC; same table: Untreated 2.51, 2nd Ab only 4.53
[2] = target: human IGF1R, endogenous, on the surface of breast cancer cell lines (MCF-7, JIMT-1, BT474) (human) (UniProt P08069); assay: FACS on JIMT-1 cells (FL1-H), anti-human FITC; same table: Untreated 1.36, 2nd Ab only 1.89
[3] = target: human IGF1R, endogenous, on the surface of breast cancer cell lines (MCF-7, JIMT-1, BT474) (human) (UniProt P08069); assay: FACS on BT474 cells (FL1-H), anti-human FITC; same table: Untreated 1.8, 2nd Ab only 1.93

Sequence of IMC-A12 (antibody) (VH): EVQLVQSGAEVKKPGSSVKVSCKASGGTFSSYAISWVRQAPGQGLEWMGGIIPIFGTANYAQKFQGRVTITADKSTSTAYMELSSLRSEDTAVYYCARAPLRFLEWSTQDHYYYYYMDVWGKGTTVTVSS
Sequence of IMC-A12 (antibody) (VL): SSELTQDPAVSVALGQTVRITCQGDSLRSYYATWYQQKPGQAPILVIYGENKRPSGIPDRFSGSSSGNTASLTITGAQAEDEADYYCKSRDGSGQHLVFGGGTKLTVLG

- MFI [1]: 40.1
- MFI [2]: 23
- MFI [3]: 18.3
Substance: IMC-A12 (antibody)
